Laboratory results: PMC3425481, “Differential Regulation of Smad3 and of the Type II Transforming Growth Factor-β Receptor in Mitosis: Implications for Signaling” (PLoS ONE, 2012)

Target: T1, Smad3 phosphorylated at the C-terminus (pSmad3C) (human (endogenous in ES-2), UniProt P84022 1-425, phospho-serines 423/425 (C-terminal SSXS motif))
T1 construct: Smad3, endogenous in human ES-2 ovarian cancer cells, precipitated with α-pSmad3C (raised against phospho-serines 423/425 of Smad3); The α-pSmad3C antibody cross-reacts with C-terminus phosphorylated Smad2; In 2ME2-arrested cells Smad3 is also phosphorylated on threonine 179, but pSmad3(179) was detected inconsistently in the immunoprecipitates; also called C-terminally phosphorylated Smad3; …
Assay: co-IP; immunoprecipitation with α-pSmad3C (overnight, 4°C) and protein A-sepharose from lysates of 10^8 ES-2 cells treated with TGF-β1 (1 h) or 2ME2 (16 h); 420 mM NaCl, 50 mM Hepes pH 7.8, 5 mM EDTA, 1% NP-40, 3% DTT; blots with α-Ski, α-Smurf2, α-tSmad2/3; control: sepharose beads alone
Conditions: partners not purified

T1 sequence (P84022 whole entry): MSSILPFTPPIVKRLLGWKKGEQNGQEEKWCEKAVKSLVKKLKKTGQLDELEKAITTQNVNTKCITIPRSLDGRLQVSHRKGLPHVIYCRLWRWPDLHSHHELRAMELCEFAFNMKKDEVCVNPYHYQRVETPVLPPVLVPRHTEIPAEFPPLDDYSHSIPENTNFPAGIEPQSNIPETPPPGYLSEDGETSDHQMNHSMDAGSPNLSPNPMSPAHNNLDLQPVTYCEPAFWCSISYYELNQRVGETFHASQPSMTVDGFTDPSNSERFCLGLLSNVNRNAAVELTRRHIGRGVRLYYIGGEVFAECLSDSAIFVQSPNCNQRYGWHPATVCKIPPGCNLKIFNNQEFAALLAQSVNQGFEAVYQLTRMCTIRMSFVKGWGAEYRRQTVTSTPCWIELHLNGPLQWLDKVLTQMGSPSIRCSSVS

fold increase of the Ski/tSmad3 ratio in the anti-pSmad3C immunoprecipitate, 2ME2-arrested cells relative to TGF-β1-activated cells: 7.7 ± 1.7 fold
B1: Ski (natural protein, human (endogenous in ES-2), UniProt P12755 1-728, looked up)
chain: MEAAAGGRGCFQPHPGLQKTLEQFHLSSMSSLGGPAAFSARWAQEAYKKESAKEAGAAAVPAPVPAATEPPPVLHLPAIQPPPPVLPGPFFMPSDRSTERCETVLEGETISCFVVGGEKRLCLPQILNSVLRDFSLQQINAVCDELHIYCSRCTADQLEILKVMGILPFSAPSCGLITKTDAERLCNALLYGGAYPPPCKKELAASLALGLELSERSVRVYHECFGKCKGLLVPELYSSPSAACIQCLDCRLMYPPHKFVVHSHKALENRTCHWGFDSANWRAYILLSQDYTGKEEQARLGRCLDDVKEKFDYGNKYKRRVPRVSSEPPASIRPKTDDTSSQSPAPSEKDKPSSWLRTLAGSSNKSLGCVHPRQRLSAFRPWSPAVSASEKELSPHLPALIRDSFYSYKSFETAVAPNVALAPPAQQKVVSSPPCAAAVSRAPEPLATCTQPRKRKLTVDTPGAPETLAPVAAPEEDKDSEAEVEVESREEFTSSLSSLSSPSFTSSSSAKDLGSPGARALPSAVPDAAAPADAPSGLEAELEHLRQALEGGLDTKEAKEKFLHEVVKMRVKQEEKLSAALQAKRSLHQELEFLRVAKKEKLREATEAKRNLRKEIERLRAENEKKMKEANESRLRLKRELEQARQARVCDKGCEAGRLRAKYSAQIEDLQVKLQHAEADREQLRADLLREREAREHLEKVVKELQEQLWPRARPEAAGSEGAAELEP
notes: Ski, endogenous in human ES-2 ovarian cancer cells, detected with α-Ski (Santa Cruz); source: endogenous, ES-2 cell lysate
